To fix the notation:
B1: IL-20 (ligand)
chain: MLKTLNLGSCVIATNLQEIRNGFSEIRGSVQAKDGNIDIRILRRTESLQDTKPANRCCLLRHLLRLYLDRVFKNYQTPDHYTLRKISSLANSFLTIKKDLRLCHAHMTCHCGEEAMKKYSQILSHFEKLEPQAAVVKALGELDILLQWMEETE
notes: The crystal model holds residues 24-176; also called Interleukin-20; IL-20b
B2: IL22R1ddq/IL20R2-FCkh (Fc fusion)
chain 1: AHAPEDPSDLLQHVKFQSSNFENILTWDSGPEGTPDTVYSIEYKTYGERDWVAKKGCQRITRKSCDLTVETGDLQELYYARVTAVSAGGRSATKMTDRFSSLQHTTLKPPDVTCISKVRSIQMIVHPTPTPIRAGDGHRLTLEDIFHDLFYHLELQVNRTYQMHLGGKQREYEFFGLTPDTEFLGTIMICVPTWAKESAPYMCRVKTLPDRTWTYSGSGGGGPSVFIFPPKIKDVLMISLSPIVTCVVVDVSEDDPDVQISWFVNNVEVHTAQTQTHREDYNSTLRVVSALPIQHQDWMSGKEFKCKVNNKDLPAPIERTISKPKGSVRAPQVYVLPPPCEEMTKKQVTLYCMVTDFMPEDIYVEWTNNGKTELNYKNTEPVLDSDGSYFMYSKLRVEKKNWVERNSYSCSVVHEGLHNHHTTKSFSRTPGKGLEASGGLNDIFEAQKIEWHEGTGHHHHHH
chain 2: DEVAILPAPQQLSVLSTNMKHLLMWSPVIAPGETVYYSVEYQGEYESLYTSHIWIPSSWCSLTEGPECDVTDDITATVPYNLRVRATLGSQTSAWSILKHPFNRQSTILTRPGMEITKDGFHLVIELEDLGPQFEFLVAYWRREPGAEEHVKMVRSGGIPVHLETMEPGAAYCVKAQTFVKAIGRYSAFSQTECVEVQGEAGSGGGGPSVFIFPPKIKDVLMISLSPIVTCVVVDVSEDDPDVQISWFVNNVEVHTAQTQTHREDYNSTLRVVSALPIQHQDWMSGKEFKCKVNNKDLPAPIERTISKPKGSVRAPQVYVLPPPEEEMTKKQVTLTCMVTDFMPEDIYVEWTNNGKTELNYKNTEPVLDSDGSYFMTSKLRVEKKNWVERNSYSCSVVHEGLHNHHTTKSFGGCGTPASGGLNDIFEAQKIEWHE
notes: also called IL-22R1/IL-20R2-FCkh; soluble IL-22R1/IL-20R2 receptor heterodimer

For one experiment, the target named is T1, IL-20R1 triple mutant M3 (UniProt Q9UHF4 29-245).
T1 construct: range 29-245; also called IL-20R1 site 3 mutant
T1 sequence (looked up): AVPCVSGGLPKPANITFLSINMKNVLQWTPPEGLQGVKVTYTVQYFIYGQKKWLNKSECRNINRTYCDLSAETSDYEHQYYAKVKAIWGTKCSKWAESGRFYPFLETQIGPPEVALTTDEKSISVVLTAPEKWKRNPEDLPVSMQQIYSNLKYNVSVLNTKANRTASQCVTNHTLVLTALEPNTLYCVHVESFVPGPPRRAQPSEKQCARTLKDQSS
Put plainly: SPR, IL-20 + M3 co-injected over an IL-20R2 chip. Here is the method: FIGS. 9A-9D show the IL-20 site 3 interface is essential and distinct from other complexes. FIG. 9A is a ribbon diagram showing the site 3 interface between IL-20R1 and IL-20R2. FIG. 9B is a graph showing the importance of the site 3 interface in ternary complex formation. SPR sensograms obtained by injecting cytokines (IL-19 or IL-20, at 250 nM) and/or receptors (IL-20R1 or M3, at 425 nM), as labeled on the figure, over an IL-20R2 coupled biacore chip. Injection of IL-20+IL-20R1 results in a large response consistent with ternary complex formation. However, injection of IL-20+M3, an IL-20R1 site 3 mutant with S190^IL-20R1, W194^IL-20R1, and W207^IL-20R1 mutated to alanine drastically reduces binding due to disruption of ternary complex formation. Similar results are observed for complex formation by IL-19. FIG. 9C is a ribbon diagram of the superposition of the D2 domains of GHR site 1, IL-6R, and IL-20R1. The positions of the D2 domains of GHR site2, GP130, and IL-20R2 are shown, along with a schematic of the differences in their orientations. FIG. 9D is a ribbon diagram showing the putative model of the IL-22/IL-22R1/IL-10R2 complex based on the IL-20 ternary complex structure. […]
In general terms: In SPR one partner is held on a chip, and binding of the other changes the refractive index at the surface.

For the experiment “IL22R1ddq/IL20R2-FCkh”, the target named is B2. Put plainly: SPR with the IL-22R1/IL-20R2-FCkh heterodimer.
A further experiment deals with T2, IL-19 (human, UniProt Q9UHD0 25-177).
T2 construct: also called Interleukin-19; IL-19a
T2 sequence: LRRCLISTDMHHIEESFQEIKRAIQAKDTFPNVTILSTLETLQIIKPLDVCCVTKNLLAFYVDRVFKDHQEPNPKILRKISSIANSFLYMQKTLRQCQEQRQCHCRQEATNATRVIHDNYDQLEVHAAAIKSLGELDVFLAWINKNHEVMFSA
Put plainly: SPR, IL-19 as analyte over IL22R1ddq/IL20R2-FCkh as ligand.

The next experiment concerns the target T3, IL-22 (Homo sapiens (Human), UniProt Q9GZX6 35-179, limits assumed).
T3 construct: also called IL-22 wt
T3 sequence: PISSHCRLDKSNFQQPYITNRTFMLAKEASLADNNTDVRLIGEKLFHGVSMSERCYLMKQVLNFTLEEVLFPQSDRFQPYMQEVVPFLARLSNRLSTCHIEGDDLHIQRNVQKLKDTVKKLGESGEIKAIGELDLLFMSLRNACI
Put plainly: SPR, IL-22 as analyte over IL22R1ddq/IL20R2-FCkh as ligand.

The experiment “IL-20” has as its target B1. Put plainly: SPR, IL-20 as analyte over IL22R1ddq/IL20R2-FCkh as ligand.

Usually Kd stands for the concentration at which binding is half-saturated. Read a low Kd as a tighter complex. A word on the kon: it is a measure of how fast the partners come together.

Regarding B1, the binding result in the experiment with IL-20R1 triple mutant M3 is reported as “binds”. For the same molecule, the “fold difference in binding affinity against IL-19” value in the experiment with IL22R1ddq/IL20R2-FCkh is 100 fold.
For B2, the values for the dissociation constant (Kd) with IL-19, with IL-22 and with IL-20 were 101 nM, 5.15 nM and 0.99 nM, respectively. In the experiment with IL-22, this molecule returned an association rate constant (kon) of around 957000 M⁻¹ s⁻¹.

(Values after patent publication US20150203556A1 (UAB RESEARCH FOUNDATION, published 2015).)
